“And” between values parts separate entries of the source, which are not always exact repeats. Equal entries are not always repeated.
Key:
[1] = system: C57, apoE-KO and GrB/apoE-DKO mice; test: Angiotensin-II infusion aortic dissection model (Example 7); format: in vivo, mouse
Method: Aortic dissections were induced with 28 day infusion of 2000 ng/kg/min angiotensin-II dissolved in saline, or placebo, through an ALZET™ osmotic pump (model 1004). The pumps were implanted into the subcutaneous space in the upper dorsal regions through a small incision site at the back of the neck of the anesthetized mouse, and the incision was closed with dissolving sutures. The mice were euthanized by carbon dioxide inhalation followed by cardiac puncture 28-days post implantation. The thoracic cavity and abdominal cavity were then opened, and the circulation perfused with PBS via a cannula placed in the left ventricle, with fluid drained from a severed right atria. Following PBS perfusion, fresh 10% formalin was perfused in the same manner. The heart, kidneys and entire aorta to the iliac bifurcation was then carefully dissected from the animal, and photographed en masse.
Aortic dissections were defined by blood accumulation between the media and outer aortic wall. Mice that were found dead without any preceding signs of suffering were defined as sudden death.

[2] = system: apoE-KO and GrB/apoE-DKO mice; test: ApoE-KO model of angiotensin-II-induced AAA (Examples 8-14); format: in vivo, mouse; details: for survival to 28 days: chronic angII infusion 1000 ng/min/kg
Excerpt: All animal protocols were approved by the University of British Columbia (UBC) Animal Care Committee. C57B1/6 mice, C57B1/6-ApoE−/− and C57B1/6-GrB−/− mice were obtained from Jackson Laboratories (Bar Harbor, Me.) ([…] et al. 1992. Proc Natl. Acad Sci 89: 4471-4475; HEUSEL et al 1994 Cell 76:977-987). The C57B1/6-ApoE−/− x GrB−/− double knockout (ApoE/GrB-DKO) mice were generated by crossing the C57B1/6-ApoE−/− and C57B1/6-GrB−/− mouse strains. […] The pups were weaned at 3 weeks of age and then maintained on a 12-hour day and night cycle with food and water provided ad libitum.
ALZET™ osmotic pumps (DURECT Corporation, Cupertino, Calif.) are miniature, implantable pumps commonly used for research in mice and rats. These infusion pumps continuously deliver drugs and other test agents at controlled rates from one day to four weeks without the need for external connections or frequent handling. ALZET™ pumps operate by osmotic displacement. An empty reservoir within the core of the pump is filled with the drug solution to be delivered. Due to the presence of a high concentration of salt in a chamber surrounding the reservoir, water enters the pump through its outer surface. This entry of water increases the volume in the salt chamber, causing compression of the flexible reservoir and delivery of the drug solution into the animal.
Mice were weighed immediately before calculating doses, and the mean weight of mice per group was used. Since mice on a regular diet gain 0.5 g of weight per week, the drug dose was calculated based on the projected mid weight of the experiment (so mice were slightly overdosed for the first two weeks and under-dosed for the final two weeks). The dose was calculated based on the pump fill volume, mean pumping rate, and the midpoint weight of the mice to achieve a value of 1.44 mg/kg/day, (equivalent to 1000 ng/min/kg). To ensure accurate filling, pumps were weighed before and after filling, and a value of 1 mg equal to 1 μL was used when assessing fill volume. […] All pumps and solutions were worked with under sterile conditions. […] All test tubes were placed in the incubator at 37° C. for 24 hours prior to implantation.
On day 1, mice were brought into the GEM micro-procedure room Animals were anesthetised with gaseous anaesthetic at a flow rate of 1.5 L per minute of oxygen with 2.5% of isoflurane delivered via a Baines system using a calibrated tabletop anaesthetic machine, administered from a rodent nose cone. Depth of anaesthesia was monitored by toe pinch response and breathing. Eyes were protected using ocular lubricant. The back of the mouse was shaved, and the legs were taped down. The back of the mouse was then sterilized with 70% ethanol, followed by iodine. The mouse was then moved to the surgical table, so that the dissecting microscope could be utilised.
Under sterile conditions, a lateral incision was made below the scapula, and the skin was blunt dissected from the subcutaneous layer, making a hole large enough to fit the minipump. The minipump was inserted with the flow regulator angled towards the head. Incisions were closed with 2-4 dissolving discontinuous sutures. Isoflurane was then shut off, allowing the mouse to breathe pure oxygen, and a dose of buprenorphine was administered for pain relief After 1 hour, when the mice had recovered from anaesthesia, they were moved back to the animal holding room. The mice were monitored daily for the remainder of the experiment.
Blood was collected by cardiac puncture following CO2 euthanization.

[3] = system: skin elastin (3H-elastin); test: 3H-elastin cleavage assay (skin elastin); format: biochemical
Method: (§1) FIG. 6 Granzyme B degrades elastin in vitro. Granzyme B was incubated with ^3H-elastin for 7 days at room temperature. Elastase was incubated with ^3H-elastin for 2 hours. Supernatants containing the soluble elastin cleavage fragments were collected and counted. Data is represented as fold increase in radioactivity over the control (elastin only). (n=2).
(§2) Tritiated elastin was prepared with the modifications as described in Banda, M. J. and Werb, Z. (1981) Biochem, J. 193: 589-605 and Gordon, S., Werb, Z. and Cohn, Z. A. (1976) in In Vitro Methods in Cell Mediated and Tumor Immunity, eds. Bloom, B. R. and David, J. R. (Academic Press, New York), pages 349-350. 1 mg of skin or aortic elastin was diluted in 1 ml dH2O and pHed to 9.2. 1 mCi NaB3H4 (PerkinElmer™, Waltham Mass.) and 2 mg of […] (Sigma™, St. Louis, Mo.) was added. After 2 hours of incubation, the pH was adjusted to 3.0 and the elastin was incubated for an additional 30 minutes. The elastin was centrifuged for 3 minutes at 5000×g and the pellet was repeatedly washed to remove excess NaB3H4. […] The radioactivity of the soluble, cleaved elastin fragments in the supernatant was counted in Ready Safe Scintillation Fluid (Beckman-Coulter™, Fullerton, Calif.). The radioactivity of the cleaved, soluble elastin fragments was 4.8 times and 2.7 times higher than background for skin and aortic elastin, respectively (FIG. 6).

[4] = system: aortic elastin (3H-elastin); test: 3H-elastin cleavage assay (aortic elastin); format: biochemical
Method: as §1, §2

[5] = system: human insoluble aortic (Ao) elastin; test: in vitro granzyme B elastin binding assay (aortic elastin); details: 50, 100, 300 ng granzyme B; 15 μg aortic elastin; PBS, 3 hours, room temperature
Method: (§3) An in vitro granzyme B elastin binding assay was conducted in the following manner. Granzyme B at 50, 100 and 300 ng was incubated with 15 μg of human insoluble skin (Sk) and aortic (Ao) elastin (Elastin Products Company™, Owensville, Mo.) in PBS for three hours at room temperature. The samples were centrifuged at 1000×g at room temperature for three minutes and the insoluble elastin collected in the pellet. The supernatants, which contained unbound granzyme B, were denatured with SDS loading buffer and run on a 10% SDS-PAGE gel. Granzyme B was detected by Western blot. Each gel contained three lanes: a first lane related to a sample containing granzyme B in the absence of elastin; a second lane related to the samples containing granzyme B and human insoluble skin elastin; and a third lane related to the sample containing granzyme B and aortic elastin. […] This phenomenon was dose-dependent and not restricted to the type of elastin used (i.e. skin elastin or aortic elastin).

[6] = system: collagen IV; test: Western blot for collagen on granzyme B-treated SMCs; format: biochemical, human; details: SMCs treated with granzyme B for 24 hours
Method: (§4) Extracellular proteins from SMC cultures were biotinylated and incubated with granzyme B. The supernatant was collected at 2, 4 and 24 hours after treatment, and the entire insoluble extracellular protein preparation collected at 24 hours. Extracellular proteins were visualized by Western blot for biotin. Western blot for beta-actin confirmed that the extracellular protein preparation was devoid of intercellular proteins. Western blots for fibronectin, phosphorylated FAK (p-FAK), and FAK were also performed on lysates of SMC treated with granzyme B. In the collected insoluble proteins, four protein bands between approximately 50-70 kDa and approximately 236 kDa disappeared 24 hours after treatment with granzyme B and cleavage of fragments approximately 25-39 kDa were evident in the matrix at this same time point. Further, the six proteins and/or cleavage fragments ranging in molecular weight from approximately 29-148 kDa were eluted into the supernatant as early as two hours after granzyme B treatment. […]
(§5) To identify extracellular proteins that are cleaved by granzyme B, western blots for fibronectin, collagen, and vitronectin on lysates from untreated and granzyme B-treated SMCs were performed. […] In the supernatants of granzyme B-treated SMCs at 24 hours, a fibronectin cleavage product was detected. […]

[7] = system: vitronectin; test: Western blot for vitronectin on granzyme B-treated SMCs; format: biochemical, human; details: SMCs treated with granzyme B for 24 hours
Method: as §4, §5

[8] = target: T1, fibronectin (Homo sapiens, UniProt P02751); test: Western blot for fibronectin on granzyme B-treated SMCs; format: biochemical; details: SMCs treated with granzyme B for 24 hours
T1 construct: endogenous in cells; host or cells: human coronary artery smooth muscle cells
Method: as §4, §5

[9] = system: human insoluble skin (Sk) elastin; test: in vitro granzyme B elastin binding assay (skin elastin); details: 50, 100, 300 ng granzyme B; 15 μg skin elastin; PBS, 3 hours, room temperature
Method: as §3

[10] = system: human coronary artery smooth muscle cells (SMC) matrix; test: Cleavage of biotinylated SMC extracellular proteins; format: biochemical; details: supernatant at 2, 4, 24 hours; insoluble matrix at 24 hours
Method: Extracellular proteins from SMC cultures were biotinylated and incubated with granzyme B. The supernatant was collected at 2, 4 and 24 hours after treatment, and the entire insoluble extracellular protein preparation collected at 24 hours. Extracellular proteins were visualized by Western blot for biotin. Western blot for beta-actin confirmed that the extracellular protein preparation was devoid of intercellular proteins. Western blots for fibronectin, phosphorylated FAK (p-FAK), and FAK were also performed on lysates of SMC treated with granzyme B. In the collected insoluble proteins, four protein bands between approximately 50-70 kDa and approximately 236 kDa disappeared 24 hours after treatment with granzyme B and cleavage of fragments approximately 25-39 kDa were evident in the matrix at this same time point. Further, the six proteins and/or cleavage fragments ranging in molecular weight from approximately 29-148 kDa were eluted into the supernatant as early as two hours after granzyme B treatment. To ensure that the SMC extracellular protein preparations used were devoid of intracellular proteins, Western blotting for beta-actin was performed on the collected supernatant and extracellular proteins. Beta-actin was apparent in SMC lysates (positive control) but was absent from matrix and supernatant preparations.

[11] = target: T2, fibrillin-1 (Homo sapiens, UniProt P35555); test: Fibrillin cleavage on SMC extracellular matrix by Western blot; format: biochemical; details: Granzyme B (80 nm) on ECM, 24 hours, room temperature
T2 construct: cells were lysed with NH4OH so that the intact extracellular matrix (ECM) remained on the plate; endogenous in cells; host or cells: human coronary artery smooth muscle cells (decellularised ECM)
T2 sequence (P35555 45-2871): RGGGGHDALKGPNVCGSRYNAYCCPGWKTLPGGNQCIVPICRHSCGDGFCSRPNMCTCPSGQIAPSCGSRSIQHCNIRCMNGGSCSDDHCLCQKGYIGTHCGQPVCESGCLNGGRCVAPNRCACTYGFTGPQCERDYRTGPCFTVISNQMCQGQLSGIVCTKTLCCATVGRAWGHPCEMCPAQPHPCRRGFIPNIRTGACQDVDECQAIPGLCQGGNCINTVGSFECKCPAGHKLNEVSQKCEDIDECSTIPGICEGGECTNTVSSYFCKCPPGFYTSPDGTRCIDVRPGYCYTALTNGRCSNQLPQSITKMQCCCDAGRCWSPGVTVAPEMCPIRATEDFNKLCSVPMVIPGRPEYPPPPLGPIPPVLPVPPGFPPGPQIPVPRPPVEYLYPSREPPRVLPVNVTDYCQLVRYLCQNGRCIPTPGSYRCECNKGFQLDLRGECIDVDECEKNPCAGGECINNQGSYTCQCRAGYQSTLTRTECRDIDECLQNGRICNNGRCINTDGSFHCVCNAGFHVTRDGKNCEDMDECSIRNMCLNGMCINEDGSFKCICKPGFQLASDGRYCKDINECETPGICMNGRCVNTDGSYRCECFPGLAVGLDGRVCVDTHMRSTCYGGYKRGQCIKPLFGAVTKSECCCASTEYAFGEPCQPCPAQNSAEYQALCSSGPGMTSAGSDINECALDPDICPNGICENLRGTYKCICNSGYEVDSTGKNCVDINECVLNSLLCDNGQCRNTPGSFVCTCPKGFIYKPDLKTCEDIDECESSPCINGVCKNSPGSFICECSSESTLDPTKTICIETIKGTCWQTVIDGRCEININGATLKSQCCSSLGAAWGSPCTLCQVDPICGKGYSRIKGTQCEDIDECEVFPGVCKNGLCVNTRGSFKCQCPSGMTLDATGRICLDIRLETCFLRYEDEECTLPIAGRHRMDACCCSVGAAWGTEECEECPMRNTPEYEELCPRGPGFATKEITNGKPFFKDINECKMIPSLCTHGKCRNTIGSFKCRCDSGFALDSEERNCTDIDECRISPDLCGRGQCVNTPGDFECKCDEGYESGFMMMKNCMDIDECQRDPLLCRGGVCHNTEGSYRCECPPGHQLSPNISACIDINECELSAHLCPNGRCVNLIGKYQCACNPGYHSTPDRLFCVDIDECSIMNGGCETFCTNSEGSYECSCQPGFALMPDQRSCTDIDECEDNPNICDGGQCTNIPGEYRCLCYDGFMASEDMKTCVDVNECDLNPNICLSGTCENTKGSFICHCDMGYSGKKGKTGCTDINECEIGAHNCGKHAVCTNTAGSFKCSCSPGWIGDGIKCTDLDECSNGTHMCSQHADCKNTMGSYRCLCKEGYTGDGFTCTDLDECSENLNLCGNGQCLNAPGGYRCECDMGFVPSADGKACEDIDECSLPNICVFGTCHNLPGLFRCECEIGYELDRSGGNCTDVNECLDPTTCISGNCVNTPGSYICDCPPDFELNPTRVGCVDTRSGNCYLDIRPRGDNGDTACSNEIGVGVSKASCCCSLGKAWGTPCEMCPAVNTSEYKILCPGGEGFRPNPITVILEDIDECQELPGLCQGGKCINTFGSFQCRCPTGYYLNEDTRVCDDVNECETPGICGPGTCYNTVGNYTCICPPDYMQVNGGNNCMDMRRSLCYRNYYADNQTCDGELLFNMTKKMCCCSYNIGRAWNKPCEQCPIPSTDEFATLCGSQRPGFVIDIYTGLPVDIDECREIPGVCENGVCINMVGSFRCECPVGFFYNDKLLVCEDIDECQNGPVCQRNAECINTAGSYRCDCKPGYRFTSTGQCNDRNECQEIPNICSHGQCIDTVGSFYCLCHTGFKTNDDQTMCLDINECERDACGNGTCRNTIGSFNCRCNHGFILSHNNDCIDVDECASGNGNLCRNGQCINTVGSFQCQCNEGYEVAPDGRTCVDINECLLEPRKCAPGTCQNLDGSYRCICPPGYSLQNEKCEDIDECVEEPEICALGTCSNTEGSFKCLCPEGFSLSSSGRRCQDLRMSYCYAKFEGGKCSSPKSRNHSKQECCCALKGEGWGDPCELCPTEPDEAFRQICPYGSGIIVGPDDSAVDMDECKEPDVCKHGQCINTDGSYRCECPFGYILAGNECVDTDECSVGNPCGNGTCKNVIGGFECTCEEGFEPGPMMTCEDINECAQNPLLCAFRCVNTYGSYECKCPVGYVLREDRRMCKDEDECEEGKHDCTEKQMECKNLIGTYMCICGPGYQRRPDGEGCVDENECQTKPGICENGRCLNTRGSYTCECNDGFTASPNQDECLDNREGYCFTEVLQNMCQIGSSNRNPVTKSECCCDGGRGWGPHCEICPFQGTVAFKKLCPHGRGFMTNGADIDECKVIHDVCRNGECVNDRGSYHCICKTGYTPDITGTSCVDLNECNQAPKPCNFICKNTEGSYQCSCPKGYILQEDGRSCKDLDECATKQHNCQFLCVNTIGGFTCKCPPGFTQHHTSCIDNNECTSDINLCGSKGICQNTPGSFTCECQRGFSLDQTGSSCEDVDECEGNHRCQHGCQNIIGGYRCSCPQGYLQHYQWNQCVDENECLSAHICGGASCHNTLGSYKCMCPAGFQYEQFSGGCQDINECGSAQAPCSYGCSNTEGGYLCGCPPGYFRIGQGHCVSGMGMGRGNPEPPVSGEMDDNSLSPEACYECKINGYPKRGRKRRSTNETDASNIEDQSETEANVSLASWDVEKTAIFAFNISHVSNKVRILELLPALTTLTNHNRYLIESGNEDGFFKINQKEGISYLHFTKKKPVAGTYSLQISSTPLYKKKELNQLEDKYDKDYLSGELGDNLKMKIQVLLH
Method: Human coronary artery smooth muscle cells were cultured to confluency and serum starved for 48 hours at which time cells were lysed with NH4OH so that the intact extracellular matrix (ECM) remained on the plate. Granzyme B (80 nm) was incubated on the ECM for 24 hours at room temperature. Supernatants (containing cleaved ECM) and ECM still attached to the plate were collected and assessed for fibrillin cleavage by Western blot. The arrows in FIG. 7 indicate fibrillin-1 cleavage fragments.

Substance: angII: angiotensin II from Sigma, infused by osmotic minipump to induce aneurysm and dissection in mice (DRVYIHPF; Angiotensin-2; UniProt P01019 25-32, looked up)
- sudden death before the 28-day time point ([1]; apoE-KO mice, 2000 ng/kg/min infusion, four of eight): 50%
- mice that developed aortic dissections or succumbed to sudden death ([1]; apoE-KO mice, 2000 ng/kg/min, 28 day infusion, seven of eight): 87.5%
- aortic dissections ([1]; wildtype and GrB/apoE-DKO mice, 2000 ng/kg/min, 28 day infusion): none developed aortic dissections
- sudden death ([1]; wildtype mice, 2000 ng/kg/min, 28 day infusion): zero of six
- medial thickness of thoracic and abdominal aortas versus saline ([2]; 28 days, significant only for apoE-KO thoracic samples (p<0.05)): trend for medial thickness to increase
- survival to 28 days ([2]; GrB/apoE-DKO mice (n=15)): 86.67%
- Weight change ([2]; GrB/apoE-DKO mice surviving to 28 days): -0.3 g
- n at 28 days ([2]; GrB/apoE-DKO mice, n at 0 days 15): 13
- mice with small abdominal aortic aneurysm (AAA) ([2]; GrB/apoE-DKO surviving mice, day 28): 30%
- survival to 28 days ([2]; apoE-KO mice (n=16)): 56.25% and 53%
- Weight change ([2]; apoE-KO mice surviving to 28 days): 1.0 g
- abdominal aortic lumen area versus saline ([2]; apoE-KO mice, 28 days, one-way ANOVA/Dunn's, p<0.05): statistically significant increase
- n at 28 days ([2]; apoE-KO mice, n at 0 days 16): 9
- gross pathological outcome ([2]; apoE-KO surviving mice, day 28): developed aortic dissections
- percent aortic root lumen covered by plaque ([2]; either genotype, angII versus saline, 28 days, p>0.05): No significant difference

Substance: elastase
- radioactivity increase over background ([3]; skin elastin, 25 μg elastase, 2 hours, positive control): 14.9 fold
- radioactivity increase over background ([4]; aortic elastin, 25 μg elastase, 2 hours, positive control): 7.7 fold

Substance: granzyme B: serine protease; the patent's target enzyme, tested for binding and cleavage of extracellular matrix proteins
- unbound granzyme B band in supernatant (Western blot) [5]: No band appeared
- cleavage of collagen IV [6]: no cleavage
- radioactivity of the cleaved, soluble elastin fragments ([3]; skin 3H-elastin 0.15 mg, granzyme B 0.75 μg added 5 times, room temperature, 7 days): 4.8 times higher than background
- radioactivity of the cleaved, soluble elastin fragments ([4]; aortic 3H-elastin 0.15 mg, granzyme B 0.75 μg added 5 times, room temperature, 7 days): 2.7 times higher than background
- cleavage of vitronectin [7]: no cleavage
- fibronectin in SMC lysates (Western blot) [8]: reduction in the total amount of fibronectin
- unbound granzyme B band in supernatant (Western blot) versus sample without elastin [9]: dramatically less pronounced
- cleavage of extracellular proteins (Western blot for biotin) [10]: induced a cleavage of a number of extracellular proteins
- fibrillin-1 cleavage (Western blot) [11]: cleaves fibrillin-1
